From patent publication US20240294650A1 (Alector, published 2024)
Changes are numbered by the printed parent chain.

T1: recombinant cynomolgus MerTK extracellular domain (cynomolgus, UniProt Q12866 21-505 (human entry))
T1 construct: also called cyno MerTK ECD; not shown: polyHis or TEVS/Thrombin/murine IgG2a-Fc tag
T1 chain: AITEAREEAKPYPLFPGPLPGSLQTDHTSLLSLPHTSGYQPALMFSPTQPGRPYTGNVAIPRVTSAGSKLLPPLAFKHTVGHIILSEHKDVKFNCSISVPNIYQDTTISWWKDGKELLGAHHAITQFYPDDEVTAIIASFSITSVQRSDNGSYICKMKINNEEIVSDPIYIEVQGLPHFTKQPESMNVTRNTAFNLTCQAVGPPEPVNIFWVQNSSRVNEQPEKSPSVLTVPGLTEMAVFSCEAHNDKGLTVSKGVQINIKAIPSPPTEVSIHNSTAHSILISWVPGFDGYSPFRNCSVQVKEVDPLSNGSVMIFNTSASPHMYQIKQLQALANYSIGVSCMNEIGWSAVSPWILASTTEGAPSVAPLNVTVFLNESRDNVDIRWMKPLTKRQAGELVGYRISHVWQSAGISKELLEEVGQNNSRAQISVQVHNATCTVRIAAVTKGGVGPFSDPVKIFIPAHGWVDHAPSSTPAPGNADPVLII

T2: recombinant murine MerTK extracellular domain (mouse, UniProt Q60805 19-497)
T2 construct: also called Mouse MerTK; murine MerTK ECD; not shown: polyHis or TEVS/Thrombin/murine IgG2a-Fc tag
T2 sequence: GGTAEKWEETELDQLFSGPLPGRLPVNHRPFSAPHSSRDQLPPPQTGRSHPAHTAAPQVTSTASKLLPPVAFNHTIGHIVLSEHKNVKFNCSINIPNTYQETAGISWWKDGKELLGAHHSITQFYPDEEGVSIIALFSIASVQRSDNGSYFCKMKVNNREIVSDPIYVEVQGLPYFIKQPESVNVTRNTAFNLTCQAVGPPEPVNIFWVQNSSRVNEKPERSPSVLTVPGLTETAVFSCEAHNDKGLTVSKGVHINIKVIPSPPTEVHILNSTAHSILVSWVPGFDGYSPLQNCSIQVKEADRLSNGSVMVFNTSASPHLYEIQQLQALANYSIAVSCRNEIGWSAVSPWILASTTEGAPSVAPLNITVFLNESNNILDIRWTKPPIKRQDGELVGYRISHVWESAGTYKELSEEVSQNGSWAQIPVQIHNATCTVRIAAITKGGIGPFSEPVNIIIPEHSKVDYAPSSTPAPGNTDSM

B1: MTK-225 (antibody, human IgG1, V domains shown)
VH: EVQLQQSGPELVKPGASVKIFCKASGYTFTAYNMDWVKQSHGKSLEWIGDINPNNGGTIYNQKFKGKATLTVDKSSSTAYMELRSLTSEDTAVYYCARRRRYGNTYYWYFDVWGTGTTVTVSS
VL: DIQMTQSPASLSVSVGETVTITCRASENIYSSLAWYQQKQGKSPQLLVYAATNLADGVPSRFSGSGSGTQFYLKINGLQSEDFGSYYCQHFWGTSYTFGGGTKLEIK
B2: MTK-221 (antibody, human IgG1, V domains shown)
VH: QVTLKESGPGMLQSSQTLSLTCSFSGFSLSTSGMGVSWIRQPSGKGLEWLAHIYWDDDKRYNTSLQSRLTISKDTSRNQVFLKITSVDTADTATYFCGRLGAYSAFPYYFDYWGQGTTLTVSS
VL: DIQMTQSPSSLSASLGGKVTITCKASQDIHKHIAWYQHKPGKGPRLLIHYTSTLQPGIPSRFSGSGSGRDYSFSISNLEPEDLATYYCLQYDNLWTFGGGTKLEIK
B3: MTK-223 (antibody, human IgG1, V domains shown)
VH: DVQLQESGPGLVKPSQSLSLTCSVTGYSITSGYYWNWIRQFPGNKLEWMGYISYDGTNNYNPSLKNRISITRDTSENQFFLKLNSVTTEDTATYFCVRGAGYWGQGTTLTVSS
VL: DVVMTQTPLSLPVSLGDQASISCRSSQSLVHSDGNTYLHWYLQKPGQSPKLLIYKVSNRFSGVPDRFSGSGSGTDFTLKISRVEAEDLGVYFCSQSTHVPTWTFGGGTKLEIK
B4: MTK-231 (antibody, human IgG1, V domains shown)
VH: B3 VH with N58Y, N61H, E76K, K82T, Y94F, F95Y, V97T, A100G, T108S, L109V
VL: DVVMTQTPLSLPVSLGDQASISCRSSQSLVHSDGNTYLHWYLQKPGQSPKLLIYKVSNRFSGVPDRFSGSGSGTDFTLKISRLEAEDLGIYFCSQTTHIPLTFGSGTKLEIK
B5: MTK-208 (antibody, human IgG1, V domains shown)
VH: QVQLQQPGAELVVPGASVRLSCKASGYTFINYWMHWVKQRPGQGLEWIGEIDPSDSYANYNQKFKDKSTLSLDKSSSTAYMQLSSLTSEDSAVYYCARCDYYGRLDYWGQGTTLTVSS
VL: QVVLTQSPAIMSASPGEKVTITCSASSSVSYMLWFQQKPGTSPKLWIYSTSNLASGVPARFSGSGSGTSYSLTISRLEAEDAATYYCQQRSSYPPITFGAGTKLELK
B6: MTK-211 (antibody, human IgG1, V domains shown)
VH: QVQLQQSGAELMKPGASVKLSCKATGYTFTGYWIEWVKQRPGHGLEWIGEILPGSGGSNYNEKFKGKATFTADTSSNTAYIQLSSLTTEDSAIYCCARGEPSYFSDAGFAYWGQGTLVTVSA
VL: QIVLTQSPAVMSASPGEKVTMTCSASSSITYMHWYQQKPGTSPKRWIYDTSKLASGVPARFSGSGSGTSYFLTISSMEAEDVATYYCHQRSTYPYTFGGGTKLEIM
B7: MTK-213 (antibody, human IgG1, V domains shown)
VH: QVQLQQPGAELVKPGASVKMSCKASGYTFTSYWITWVKQRPGQGHEWIGEIYPGIGSTNYNEKFKSKATLTVDTSSRTAYMQLSSLTSEDSAVYFCARGAYTKYYFDYWGQGTTLTVSS
VL: DIVMTQSHKFMSTSVGDRVSITCKASQDVGDAVAWYQQKPGQTPKLLIYWASTRHTGVPDRFTGSGSGTDFTLTISNVQSEDLADYFCQQYSSYLMYTFGGGTKLEIK
B8: MTK-220 (antibody, V domains shown)
VH: EVQLVESGGGLVKPGGSLKLSCAASGFTFSDYGMHWVRQAPEKGLEWVAFISGGSGTIYYEDTVKGRFTISRDNAKNTLFLQMTSLRSEDTAMYYCTRGGNYFDYWGQGTTLTVSS
VL: NIMLTQSPSSLAVSAGEKVTMTCKSSQSVLYSSNQKNYLAWYQQKPGQSPKLLIYWASTRESGVPDRFTGSGSGTDFTLTISNVQAEDLAVYYCHQYFSSWTFGGGTKLEIK
B9: MTK-202 (antibody, human IgG1, V domains shown)
VH: EVQLVESGGGLVKPGGSLKLSCAASGFTFSDFGMHWVRQVPEKGLEWVAFISGGSNTIYYTDTVKGRFTISRDNAKNTLFLQMTSLRSEDTAMYYCVRNGNSFAYWGQGTLVTVSA
VL: B8 VL with L4M, T22N, V84I, V91I, S99F
B10: MTK-204 (antibody, human IgG1, V domains shown)
VH: B8 VH with F50Y, G53S, S55T, G56S, T97A, N101L, Y102L
VL: B8 VL with L4M, T22S, Y55Q, G74E, S82R, N83S
B11: MTK-215 (antibody, human IgG1, V domains shown)
VH: EVQLVESGGGLVKPGGSLKLSCAASGFIFSDYGMHWVRQAPEKGLEWVAYISSGSSTIYYGDTVKGRFTISRDNAKNTLFLQMTSLRSEDTAMYYCAKGGRYGAMDYWGHGTSVTVSS
VL: DIVLTQSPATLSVTPGDSVSLSCRASQSISNNLHWYQQKSHESPRLLIKNPSQSISGIPSRFGARGSGTDFTLIINSVETEDLGVYFCQQSNSWPFTFGSGTKLEIK
B12: MTK-228 (antibody, human IgG1, V domains shown)
VH: QDQLQQSGPELVKPGASVKISCKASGYSFTSYYIHWVKQRPGQGLEWVGWIFPGNGNTKYNERFKGKATLTADTSSSTAYMQLSSLTSEDSAVYYCARLGLIYALDYWGQGTSVTVSS
VL: DAVMTQTPLSLPVSLGDQASISCRSSQSLENSNGNTYLHWYLQKPGQSPQLLIYRVSNRFSGVLDRFSGSGSGTDFTLKISRVEAEDLGVYFCLQVTHVPFTFGSGTKLEIK
B13: MTK-218 (antibody, human IgG1, V domains shown)
VH: B12 VH with D2V, A16T, E46D, V48I, G56R, K59Q, R63K
VL: B12 VL with N35H, L64Q
B14: MTK-226 (antibody, human IgG1, V domains shown)
VH: B12 VH with D2V, V48I, R63N, K65R
VL: B12 VL with N31S, K79Q

Target: T1, recombinant cynomolgus MerTK …
Test: SPR Carterra LSA
Method: Binding kinetics of anti-MerTK IgG1 antibodies of the present disclosure to human, cyno, and murine MerTK were evaluated using a Carterra LSA instrument (Carterra, Salt Lake City, UT). […] A HC200M sensor chip (Carterra) was activated using the single channel flow cell with a 7-minute injection of a 1:1:1 mixture of 100 mM MES pH 5.5, 100 mM sulfo-NHS, 400 mM EDC (all reconstituted in MES pH 5.5; 100 μl of each mixed in vial immediately before running assay). After switching to the multi-channel array flow cell, the antibodies were injected over the activated chip in three 96-spot arrays for 10 minutes each. The remaining unconjugated active groups on the chip were then blocked by injecting 1M Ethanolamine pH 8.5 (Carterra) for 7 minutes using the single channel flow cell. The resulting sensor chip contained three spots for each antibody, at three different densities. Two independent experiments were performed as follows, resulting in an N of between one and six determinations for each antibody. Spots that yielded less than 25 RU of analyte binding were excluded from further analysis.
After priming with running buffer (HBS-TE, Carterra) with 0.5 mg/ml BSA (Sigma), the immobilized anti-MerTK antibodies were tested for their ability to bind to several forms of recombinant MerTK extracellular domain, including human, cynomolgus, and mouse orthologs as described above. Estimates of affinity were generated by injecting each analyte over the entire antibody array using the single channel flow cell. MerTK analytes were diluted with running buffer, in a series of six, three-fold serial dilutions starting from 1 μM for human and cynomolgus MerTK, and 600 nM for mouse MerTK. Analytes were injected for 5 minutes, and dissociation was followed for 10 minutes. After each analyte injection, antibodies were regenerated with either Protein A/G Elution Buffer (Thermo) with 1M NaCl (Teknova), or with 10 mM Glycine pH 2.5. Three buffer blanks were run between each series (one species per series). Data were processed and analyzed using NextGenKIT high-throughput kinetics analysis software (Carterra).

Ratio of KD for Cynomolgus vs Human MerTK | Binder
1.5 ratio | B1
1.3 ratio | B2
2.5 ratio | B3
1.8 ratio | B4
1.8 ratio | B5
1.1 ratio | B6
0.9 ratio | B7
2.7 ratio | B8
4.8 ratio | B9
2.8 ratio | B10
4.3 ratio | B11
1.1 ratio | B12
1.3 ratio | B13
1.2 ratio | B14

Target: T1, recombinant cynomolgus MerTK …
Test: SPR Carterra LSA, Ab immobilised
Outline: (§1)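 Surface plasmon resonance on a Carterra LSA measured affinity of immobilized antibodies for human, cynomolgus or mouse MerTK ectodomain diluted in HBS-TE with 0.5 mg/ml BSA. Analytes flowed over the full array, surfaces were regenerated with Protein A/G Elution Buffer plus 1M NaCl or 10 mM Glycine pH 2.5, and spots binding under 25 RU were discarded before kinetic fitting.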

Kd | Binder
80 nM | B1
38 nM | B2
190 nM | B3
48 nM | B4
34 nM | B5
1.4 nM | B6
60 nM | B7
410 nM | B8
160 nM | B9
680 nM | B10
1600 nM | B11
46 nM | B12
85 nM | B13
47 nM | B14

These binders were tested against T2, recombinant murine MerTK extracellular … (assay: SPR Carterra LSA, Ab immobilised).
Outline: as §1

Kd | Binder | binding result
 | B2 | no binding (tested: analyte up to 600 nM)
 | B5 | no binding (tested: analyte up to 600 nM)
4.8 nM | B7 | 
1.7 nM | B12 | 
6.2 nM | B13 | 
1.8 nM | B14 | 
